Source: US20170224833A1, “SELF-ASSEMBLING MOLECULES THAT ACCUMULATE IN ACIDIC TUMOR MICROENVIRONMENTS” (OHIO STATE INNOVATION FOUNDATION, priority 2014, published 2017)
Residues, ends and D or L forms follow the SMILES beside them. *: point of attachment. Palmitoyl = CCCCCCCCCCCCCCCC(=O)*

Legend:
[1] = Circular dichroism (CD) spectroscopy of pH-triggered self-assembly transition in 150 mM NaCl, 2.2 mM CaCl2; assay type: physicochemical; settings: for CD Transition pH: random coil to β-sheet; for secondary structure by CD: irrespective of concentration and pH (pH 5-10)
Procedure: The target PA concentration (10 μM) was below the detectable limit of conventional techniques to determine the morphology such as cryoTEM and small-angle X-ray scattering. Consequently, circular dichroism (CD) spectroscopy was initially used to characterize the morphology of these PAs at various pH values. PA1 was the first molecule synthesized that underwent a self-assembly transition in the desired pH range of 6.6-7.4 at 10 μM PA concentration, in 150 mM NaCl and 2.2 mM CaCl2 (FIG. 2A) (Goldberger, J. E., et al. Angew. Chem. Int. Ed. 2011 50:6292-95). […] The transition pH from random coil to β-sheet occurred at a pH of 6.6. The transition pH was defined as the value at which the ellipticity at 205 nm rises to zero, followed by the appearance of a minimum at 218-220 nm.
Measurements were done on a Jasco-815 Circular Dichroism spectrometer using 1 cm path length quartz cuvettes. 10 μM solutions of peptide amphiphiles were prepared in 150 mM NaCl and 2.2 mM CaCl2 by dilution from a concentrated PA stock (0.5-1 mM, pH 9). Double de-ionized Milli-Q water was used for preparing all solutions. The solutions were then heated at 80° C. for 30 minutes in a water bath and gradually cooled to room temperature. An Accumet XL15 pH meter (Fisher Scientific) coupled with an Orion Ross Ultra semi-micro electrode (8103BNUWP, Thermo Scientific) was used to adjust the pH of the solution to the desired value followed by collection of the CD spectra Each trace shown was averaged over 3 accumulations and was baseline subtracted using aqueous solutions containing salts only. All spectra are cut-off below 205 nm due to absorption by NaCl and CaCl2.
Measurements were done on a Jasco-815 Circular Dichroism spectrometer using 0.5-1 cm path length quartz cuvettes. 500-10 μM of either pure PA or PA mixtures were prepared in 150 mM NaCl and 2.2 mM CaCl2 (and 1.8 mM 20 kDa PEG in select samples) by dilution from a concentrated PA stock (0.5-1 mM, pH 9). Double de-ionized Milli-Q water was used for preparing all solutions. The solutions were then heated at 80° C. for 30 minutes in a water bath and gradually cooled to room temperature. An Accumet XL15 pH meter (Fisher Scientific) coupled with an Orion Ross Ultra semi-micro electrode (8103BNUWP, Thermo Scientific) was used to adjust the pH of the solution to the desired value followed by collection of the CD spectra. Each trace shown was averaged over 3 accumulations and was baseline subtracted using aqueous solutions containing salts only. All spectra are cut-off below 200 nm due to absorption by NaCl and CaCl2. The same procedure was followed for the salt control samples with 3.0 and 4.0 mM CaCl2.
Self-assembly behavior is known to be extremely sensitive to minor changes in monomer structure and presence of impurities. […] CAC measurements via the pyrene 1:3 method (Das, D. et al. J. Colloid Interface Sci. 2008, 327:198) were used to ascertain the single molecule to spherical micelle transitions at varying pH values (FIGS. 24A-24C). CD Spectroscopy was used to determine the pH points at which different concentrations (10-500 μM) of the PA molecules transitioned from a random coil to a β-sheet secondary structure (FIGS. 25A-25C). It has been previously shown that the random coil and β-sheet structures correspond to spherical micellar/isolated molecule and nanofiber morphologies respectively (Ghosh, A. et al. J. Am. Chem. Soc. 2012, 134:3647). The CD transition point was defined to be the pH value at which the ellipticity at 200 nm rose from a negative value (random coil) to zero accompanied by the appearance of a minimum at 218-220 nm. The addition of PA66 shifted the CD transition pH to more basic values by ˜0.6 pH units. […] This ˜0.6 pH shift in CD transition pH to more basic values were also observed when 1.5% of PA67 was added to PA65. […]

[2] = Transmission electron microscopy (TEM) of self-assembled morphology; assay type: physicochemical; settings: for average diameter of isolated nanofibers: 0.5 mM; for fiber diameter: pH 8.0 (100 μM, FIG. 40)
Procedure: TEM images were obtained using solutions of either 10 μM or 0.5 mM peptide amphiphile concentration, as well as 150 mM NaCl and 2.2 mM CaCl2 in Milli-Q water. The solutions were first heated at 80° C. for 30 minutes in a water bath and then gradually cooled to room temperature. This was followed by pH adjustment using either HCl or NaOH. 5 μL of this solution was pipetted onto a Carbon Formvar grid (Electron Microscopy Sciences) and allowed to sit for 2 minutes before being wicked dry using filter paper. For the 10 μM experiments that were performed to determine the time dependence of nanofiber formation, solutions were dropcast onto the grid within three minutes of pH adjustment. The samples were then negatively stained using 1 wt % uranyl acetate and imaged under a FEI Tecnai G2 Bio TWIN TEM system, operating at 100 kV. All TEM experiments were performed in triplicate, using at least three different freshly prepared solutions and grids. […]
TEM images were obtained at various concentrations and pH values, with 150 mM NaCl and 2.2 mM CaCl2 in deionized water. Solutions were heated at 80° C. for 30 minutes and gradually cooled to room temperature. Following temperature equilibration, pH adjustment was achieved using HCl or NaOH. 5 μL of this solution was pipetted onto a Carbon Formvar grid (Electron Microscopy Sciences) and allowed to sit for 2 minutes before being wicked dry using filter paper strips. The samples were negatively stained with 1 wt % uranyl acetate and imaged under a FEI Tecnai G2 Bio TWIN TEM system operating at 100 kV.
Transmission electron microscopy was employed to confirm the self-assembled morphology at different pH values and concentrations. The sample to be tested was basified to a pH of 10, stirred at 90° C. in an oil bath for 30 minutes and cooled to room temperature. The pH was then adjusted with HCl and NaOH to set the peptide solution (in 150 mM NaCl and 2.2 mM CaCl2) to a pH of either 5 or 9. Once the desired pH was reached, 5 μL of the sample was placed and spread onto a Carbon Formvar grid (Electron Microscopy Sciences) and allowed to sit for one minute before being wicked dry with filter paper. A 1 wt % uranyl acetate solution was added and spread over the grid to negatively stain the sample, and was wicked dry immediately after application. The grid was then examined by a FEI Tecnai G2 Biotwin TEM at 100 keV. The diameters of each self-assembled morphology was determined via averaging at least 30 different objects.

[3] = 10 μM PA, 150 mM NaCl, 2.2 mM CaCl2

CCCCCCCCCCCCCCCC(=O)N[C@H](C(=O)N[C@@H](C)C(=O)N[C@@H](C)C(=O)N[C@@H](C)C(=O)N[C@@H](CCC(=O)O)C(=O)N[C@@H](CCC(=O)O)C(=O)N[C@@H](CCC(=O)O)C(=O)N[C@@H](CCC(=O)O)C(N)=O)[C@@H](C)CC [PA1] (Palmitoyl-IAAAEEEE-NH2)
pH above which CD shows superimposable random coil morphology [1, 3]: 6.82
CD Transition pH [1, 3]: 6.6
time required to achieve the expected morphology after pH change ([1]; 10 μM, 150 mM NaCl, 2.2 mM CaCl2): three minutes or less
transition between random coil and β-sheet structure (reversibility) ([1]; 10 μM, pH switched between 7.75 and 6.1, three cycles): rapid and reversible
pH transition point at 10 μm PA ([1]; basic to acidic transition from small molecule to cylindrical nanofiber, simulated serum environment): 6.6
average diameter of isolated fibers ([2]; 10 μM, pH 6): 9.1±1.5 nm
average length of isolated fibers ([2]; 10 μM, pH 6, grids within three minutes of pH adjustment): 590±200 nm
fibers observed by TEM ([2]; 10 μM, pH 8): no fibers were present
average diameter of isolated nanofibers ([2]; pH 6.0): 9.4±1.1 nm
average diameter of isolated nanofibers ([2]; pH 10.0): 9.5±1.2 nm

CCCCCCCCCCCCCCCC(=O)N[C@@H](C)C(=O)N[C@H](C(=O)N[C@@H](C)C(=O)N[C@@H](C)C(=O)N[C@@H](CCC(=O)O)C(=O)N[C@@H](CCC(=O)O)C(=O)N[C@@H](CCC(=O)O)C(=O)N[C@@H](CCC(=O)O)C(N)=O)[C@@H](C)CC [PA68] (Palmitoyl-AIAAEEEE-NH2)
morphology by CD ([1]; 8.4 μM and above): formed nanofibers across all pH values
nanofiber diameter ([2]; 100 μM, pH 5.0 and 8.3): 9.5±0.8 nm

Palmitoyl-AAAIEEEE-NH2 (SMILES CCCCCCCCCCCCCCCC(=O)N[C@@H](C)C(=O)N[C@@H](C)C(=O)N[C@@H](C)C(=O)N[C@H](C(=O)N[C@@H](CCC(=O)O)C(=O)N[C@@H](CCC(=O)O)C(=O)N[C@@H](CCC(=O)O)C(=O)N[C@@H](CCC(=O)O)C(N)=O)[C@@H](C)CC) [PA70]
secondary structure by CD [1]: β-sheet secondary structure regardless of concentration and pH
fiber diameter [2]: ~9.0±0.8 nm

Palmitoyl-AIAAEEEEK(DO3A:Gd)-NH2 (Palmitoyl-AIAAEEEEK(DO3A)-NH2; also: DO3A chelates Gd) [PA71]
secondary structure by CD [1]: exclusively 3-sheet formation irrespective of concentration and pH
nanofiber length ([2]; pH 6.6, 150 μM): > 1 μm
nanofiber width ([2]; pH 6.6, 150 μM): ~11.3±1.1 nm
fiber diameter [2]: ~9.6±0.5 nm

Palmitoyl-IAAAEEEEK(DO3A:Gd)-NH2 (Palmitoyl-IAAAEEEEK(DO3A)-NH2; also: DO3A chelates Gd) [PA5]
CD Transition pH [1, 3]: 5.7
nanofiber to micelle transition pH ([1]; 20 μM PA): 5.7
nanofiber to micelle transition pH ([1]; 0.5 mM PA): 6.0
pH transition point at 10 μm PA ([1]; basic to acidic transition from spherical micelle to cylindrical fiber, simulated serum environment (150 mM NaC, 2.2 mM CaCl2)): 5.7
nanofiber diameter ([2]; 0.5 mM PA, pH 4): 11.9±1.6 nm
spherical micelle diameter ([2]; 0.5 mM PA, pH 10): 10.0±1.2 nm

palmitoyl-YYAAEEEEEK(DO3A:Gd)-NH2 (Palmitoyl-YYAAEEEEEK(DO3A)-NH2; also: DO3A chelates Gd) [PA74]
pH below which nanofibers form (CD morphology transition) ([1]; 50 μM): 5.75
nanofiber diameter ([2]; FIG. 50: pH 5, PA74 500 μM, PA75 100 μM): 9.7+/−1.2 nm
morphology by TEM ([2]; pH 5, PA74 500 μM, PA75 100 μM): nanofiber morphology
morphology by TEM ([2]; pH 9, PA74 500 μM, PA75 100 μM): spherical micelle morphology
